Results as given in US6673354B2, “Compositions and methods for treating papillomavirus-infected cells” (priority 1998, dated 2004).
Where no end group is shown, it is not given here.

Columns and labels:
HPV11 E1/E2 interaction = molecular target: T1, HPV11 E1/E2 interaction (Human papillomavirus 11, UniProt P04014); assay: In vitro HPV E1-E2 binding assay, HPV11 E1 and HPV11 E2
T1 construct: made in house; host or cells: Hi-Five insect cells infected with recombinant baculoviruses (gift from Louise Chow); nuclear extracts
T1 sequence (P04014 whole entry, looked up): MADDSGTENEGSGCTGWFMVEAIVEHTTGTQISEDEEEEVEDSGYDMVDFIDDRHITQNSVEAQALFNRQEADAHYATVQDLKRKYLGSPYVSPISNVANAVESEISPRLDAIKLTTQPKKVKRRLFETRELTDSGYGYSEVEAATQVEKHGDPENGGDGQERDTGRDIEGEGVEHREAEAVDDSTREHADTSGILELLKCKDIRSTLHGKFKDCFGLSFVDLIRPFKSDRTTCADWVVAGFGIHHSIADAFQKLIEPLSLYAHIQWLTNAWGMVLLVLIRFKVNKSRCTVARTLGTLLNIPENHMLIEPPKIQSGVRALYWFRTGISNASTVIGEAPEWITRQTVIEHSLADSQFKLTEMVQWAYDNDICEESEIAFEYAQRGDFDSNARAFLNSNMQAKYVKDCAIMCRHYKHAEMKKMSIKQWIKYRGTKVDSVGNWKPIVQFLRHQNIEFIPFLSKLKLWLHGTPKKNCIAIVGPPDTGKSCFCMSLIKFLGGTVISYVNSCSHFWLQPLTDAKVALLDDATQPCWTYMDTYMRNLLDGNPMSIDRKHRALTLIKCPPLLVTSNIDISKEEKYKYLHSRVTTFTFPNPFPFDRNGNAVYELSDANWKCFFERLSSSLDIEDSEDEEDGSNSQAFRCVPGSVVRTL
Description: In vitro HPV E1-E2 binding assay. 300-500 ng protein from HPV16 or HPV11 EE-E1 expressing recombinant baculovirus infected cell nuclear extracts and 80-120 ng from HPV E2 baculovirus infected cell nuclear extracts were incubated in 500 μl NET-gel buffer (50 mM Tris-HCl pH7.5, 150 mM NaCl, 0.1% NP-40, 1 mM EDTA, 0.25% gelatin) at 4° C. for one hour. 1-2 μg anti-EE monoclonal antibody was added and incubated with shaking at 4° C. for one hour. Immune complexes were precipitated with protein-G agarose beads and washed twice for 30 minutes with ice cold NET-gel buffer. Precipitated proteins were detected by Western blot using appropriate primary antibodies and anti-rabbit IgG HRP or anti-mouse IgG HRP (Amersham). Membranes were blocked for one hour in TNET (10 mM Tris 7.5, 2.5 mM EDTA, 50 mM NaCl, 0.1% Tween-20) containing 4% (w/v) dry milk. Washes and antibody reactions were carried out in TNET, and proteins were visualized by chemiluminescence (Reneaissance ECL, NEN) and autoradiography. Bands were quantitated using the NIH image program.
Very little is known about the physical properties of domains within the papillomavirus E1 and E2 proteins that are involved in intermolecular recognition and association. […] The effect of the E2N-WP15 peptide on these interactions was also assessed. […]

[1] = system: in vitro HPV16 DNA replication; assay: In vitro replication of HPV16 DNA (293 cell extract, EE-E1, HPV16 E2); format: biochemical; conditions: 40 ng EE-E1 and 6 ng HPV16 E2, FIG. 7
Description: In vitro replication reactions. In vitro replication reactions were essentially as described by Kuo et al. (18) in 25 μl reactions at 37° C. for indicated times. Standard reactions were for 2 hours, and were terminated by addition of 200 μl stop solution (20 mM Tris-HCl pH 7.5, 10 mM EDTA, 0.1% SDS, and 20 μg/ml RNase A). After incubation at 37° C. for 15 minutes, proteinase K was added (200 μg/ml) and incubation was continued 30 minutes. Samples were extracted with 250 μl phenol/chloroform/isoamyl alcohol (25:24:1), ethanol precipitated, washed with 70% ethanol, dried, resuspended in 20-30μl TE, and analyzed on a 0.8% agarose gel (TAE). The agarose gel was dried onto Hybond N+ membrane (Amersham), and replicated DNA was visualized by autoradiography. Bands were quantitated by Phosphorimager analysis. Replication templates were pKS7838-7905 (nt7838-7905/1-130) containing the HPV16 replication origin, and pUC7874-99 containing the HPV11 origin of replication (nt7874-7933/1-99). pUC7874-99 was a generously provided by Dr. Louise Chow.
We sought to establish a system for the study of HPV16 DNA replication in vitro, and to determine whether specific interaction between HPV16 E1 and E2 was required for HPV16 DNA replication in this system. […] As has been documented for other papillomavirus E1 proteins, some replication was observed using relatively large amounts of E1 in the absence of E2 (lanes 2 through 7) (6, 16, 22, 33, 40, 48). […] Replication in this assay is ori-dependent, since the small amount of replication of the pKS plasmid lacking the HPV16 origin detected at high concentrations of EE-E1 (FIG. 3B, lanes 1-6) was not stimulated by E2 (FIG. 1B, lanes 7-12).
Since the E2N-WP23 and E2N-WP 15 peptides could inhibit interaction between […] E1 and E2, their ability to inhibit in vitro HPV16 DNA replication was also tested (FIGS. 7A and 7B).

WKHMRLACAIYYKAR [E2N-MP15]
inhibition of HPV11 E1/E2 interaction (HPV11 E1/E2 interaction): did not inhibit | inhibition of in vitro HPV16 DNA replication [1]: wild type peptides inhibited replication much more effectively than the respective E39A substituted analog
